# Reference: PMC12405362
# Substrate: O=C(/C=C/c1ccc(O)c(O)c1)O[C@@H]1C[C@](O)(C(=O)O)C[C@@H](O)[C@H]1O
# Experiment: purified protein
# Settings: tri-buffer (0.1 M acetic acid, 0.1 M Tris, 20 mM MES) pH 6, 30°C, 15 min, hydrolysis
protein,measurement,value
CiCQE3 (Cichorium intybus) (protein) CYPSIISFGDSLADTGNVKEMASKSNVHAPHFLFPPYGETFFNKPTGRCSNGRLIIDFVAESLGLPLIPPSLGSKTNVHVTGLGQGVNYAVAGATALDSSFHEERGVEIWTNASLGVQLGWFKDSLSSICSSVADCRQLIGQSLVLMGEIGGNDYNHALVAGKSIDEVETYVPFVINTIVSAVNELIELGAETLVIPGNLPIGCSAAYLTIFYGSSEVQYDNSTGCIITLNKLAEYHNEFLQKKLHQIRELHPDVNIIYADYYNAAMQFFRSPNKYGFTNGALKACCGGGGPFNYNPSIDCADPASTSCAQPDTYVNWDGLHLTEAAYRVIFKSIFEGSYTTPRFNALCPTSMLQGVGGFSSSI,Km,1740 µM
same,kcat,0.466 s⁻¹
